From patent US20220025008A1 (FAPON BIOTECH, published 2022)

T1: Recombinant NT antigen (N-terminal pro-brain natriuretic peptide, NT-proBNP) (human, UniProt P16860 27-102)
T1 construct: domain: N-terminal pro-brain natriuretic peptide (NT-proBNP); also called recombinant NT protein; N-terminal pro-B-type natriuretic peptide
T1 sequence (looked up): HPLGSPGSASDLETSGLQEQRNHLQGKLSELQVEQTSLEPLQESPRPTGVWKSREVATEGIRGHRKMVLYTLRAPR


The binders below were run against T1, Recombinant NT antigen (N-terminal …) (assay: indirect ELISA, KD calculated from half-max OD at 4 coating concentrations).
Method: Recombinant NT antigen was diluted with coating solution to 1 μg/ml a microplate overnight at 4° C.; which was washed twice with washing solution and patted dry on the next day; with addition of blocking solution (20% BSA+80% PBS) at 120 μL per well at 37° C. for 1 h and patted dry; added the diluted NT monoclonal antibody, 100 μL/well at 37° C. for 30 min (partial supernatant for 1 h); washed 5 times with washing solution and patted dry; added rabbit anti-goat IgG-HRP […] per well at 37° C. for 30 min; washed 5 times with washing solution and patted dry; added color developing solution A (50 μL/well), added color developing solution B (50 μL/well) for 10 min; added stop solution, 50 μL/well; followed by reading the OD value at 450 nm (reference 630 nm) on the microplate reader.
Data from the enzyme immunoassay indirect method were analyzed in the same way as the activity identification, with four gradients of 3 μg/ml, 1.5 μg/ml, 0.75 μg/ml and 0.375 μg/ml for coating; the antibody was diluted from 1000 ng/ml by 2 times to 0.977 ng/ml for loading sample. OD values corresponding to different antibody concentrations at different coating concentrations were obtained. Under the same coating concentration, data were plotted logarithmically with the antibody concentration as the abscissa and the OD value as the ordinate.

Binder | Kd [nM]
WT 1-8 (antibody, V domains shown) VH: QVRLQESGPSQVKPAQTLSLTCAISGPSLTTYYVDWVRHTPGKPPEWLAQMTKDANAVHQPTVRSRLSITRDTSKSQVFLKLTGVTTEDTAVYYCVKGIIDWGPGLLVTVSS V domain: QAVLTQPSSVSRSLGQTVSITCSGSSDNVGPGDYINWFQLIPGSAPKTLIFAAYSRVRGVPDRFSGSRSGNTATLTINSLQAEDEADYYCGSPNSRNYVWGSGTRLTVLS | 4.78
Mutation 1-2 (antibody, V domains shown) VH: QVRLQESGPSQVKPAQTLSLTCAISGFSITTYYVDWVRHTPGKPPEWLAQMTKDGNAVHQPTLRSRLSITRDTSKSQVFLKLTGVTTEDTAVYYCVRGLIDWGPGLLVTVSS VL: QAVLTQPSSVSRSLGQTVSITCSGSSDQVGFGDYINWFQLIPGSAPKTLIFGATSRVRGVPDRFSGSRSGNTATLTINSLQAEDEADYYCGSANSRGGYVFGSGTRLTVLS | 2.61
WT 1-9 (antibody, V domains shown) VH: QVRLQESGPSQVKPAQTLSLTCAISGPSVTTYYIDWVRHTPGKPPEWLAQMTKDANAVHQPTLRSRLSITRDTSKSQVFLKLTGVTTEDTAVYYCVKGLIDWGPGLLVTVSS V domain: QAVLTQPSSVSRSLGQTVSITCSGSSDNVGPGDYVNWFQLIPGSAPKTLIFAAYSRLRGVPDRFSGSRSGNTATLTINSLQAEDEADYYCGSGNSRGGYVWGSGTRLTVLS | 2.47
Mutation 1-4 (antibody, V domains shown) VH: QVRLQESGPSQVKPAQTLSLTCAISGFSLTTYYLDWVRHTPGKPPEWLAQMTKDGNAVHQPTVRSRLSITRDTSKSQVFLKLTGVTTEDTAVYYCVRGVIDWGPGLLVTVSS VL: QAVLTQPSSVSRSLGQTVSITCSGSSDNVGFGDYLNWFQLIPGSAPKTLIFGAYSRLRGVPDRFSGSRSGNTATLTINSLQAEDEADYYCGSGNSRGGYVFGSGTRLTVLS | 2.07
Mutation 1-12 (antibody, V domains shown) VH: QVRLQESGPSQVKPAQTLSLTCAISGFSLTTYYIDWVRHTPGKPPEWLAQMTKDGNAVHQPTIRSRLSITRDTSKSQVFLKLTGVTTEDTAVYYCVRGIIDWGPGLLVTVSS VL: QAVLTQPSSVSRSLGQTVSITCSGSSDQVGFGDYVNWFQLIPGSAPKTLIFGAYSRIRGVPDRFSGSRSGNTATLTINSLQAEDEADYYCGSPNSRGGYVFGSGTRLTVLS | 2.75
Mutation 1-14 (antibody, V domains shown) VH: QVRLQESGPSQVKPAQTLSLTCAISGFSLTTYYVDWVRHTPGKPPEWLAQMTKDGNAVHQPTLRSRLSITRDTSKSQVFLKLTGVTTEDTAVYYCVRGLIDWGPGLLVTVSS VL: QAVLTQPSSVSRSLGQTVSITCSGSSDQVGFGDYINWFQLIPGSAPKTLIFGAYSRVRGVPDRFSGSRSGNTATLTINSLQAEDEADYYCGSANSRGGYVFGSGTRLTVLS | 0.875
Mutation 1-16 (antibody, V domains shown) VH: QVRLQESGPSQVKPAQTLSLTCAISGFSVTTYYLDWVRHTPGKPPEWLAQMTKDGNAVHQPTVRSRLSITRDTSKSQVFLKLTGVTTEDTAVYYCVRGVIDWGPGLLVTVSS VL: QAVLTQPSSVSRSLGQTVSITCSGSSDNVGFGDYLNWFQLIPGSAPKTLIFGATSRLRGVPDRFSGSRSGNTATLTINSLQAEDEADYYCGSGNSRGGYVFGSGTRLTVLS | 3.27
Mutation 1-21 (antibody) heavy: QVRLQESGPSQVKPAQTLSLTCAISGFSLTTYYIDWVRHTPGKPPEWLAQMTKDGNAVHQPTLRSRLSITRDTSKSQVFLKLTGVTTEDTAVYYCVRGLIDFGPGLLVTVSSASTTPPKVYPLTSCCGDTSSSIVTLGCLVSSYMPEPVTVTWNSGALTSGVHTFPAILQSSGLYSLSSVVTVPASTSGAQTFICNVAHPASSTKVDKRVEPGCPDPCKHCRCPPPELPGGPSVFIFPPKPKDTLTISGTPEVTCVVVDVGQDDPEVQFSWFVDNVEVRTARTKPREEQFNSTFRVVSALPIQHQDWTGGKEFKCKVHNEGLPAPIVRTISRTKGQAREPQVYVLAPPQEELSKSTLSVTCLVTGFYPDYIAVEWQKNGQPESEDKYGTTTSQLDADGSYFLYSRLRVDKNSWQEGDTYACVVMHEALHNHYTQKSISKPPGK light: QAVLTQPSSVSRSLGQTVSITCSGSSDQVGFGDYINWFQLIPGSAPKTLIFGAYSRIRGVPDRFSGSRSGNTATLTINSLQAEDEADYYCGSANSRGGYVFGSGTRLTVLSQPKSAPSVTLFPPSKEELDTNKATVVCLISDFYPGSVNVVWKADGSTINQNVKTTQASKQSNSKYAASSYLTLTGSEWKSKSSYTCEVTHEGSTVTKTVKPSECS | 2.53
Mutation 1-24 (antibody, V domains shown) VH: QVRLQESGPSQVKPAQTLSLTCAISGFSVTTYYIDWVRHTPGKPPEWLAQMTKDGNAVHQPTIRSRLSITRDTSKSQVFLKLTGVTTEDTAVYYCVRGIIDWGPGLLVTVSS VL: QAVLTQPSSVSRSLGQTVSITCSGSSDQVGFGDYVNWFQLIPGSAPKTLIFGASSRIRGVPDRFSGSRSGNTATLTINSLQAEDEADYYCGSPNSRGGYVFGSGTRLTVLS | 1.17
Mutation 1-26 (antibody, V domains shown) VH: QVRLQESGPSQVKPAQTLSLTCAISGFSVTTYYVDWVRHTPGKPPEWLAQMTKDGNAVHQPTLRSRLSITRDTSKSQVFLKLTGVTTEDTAVYYCVRGLIDWGPGLLVTVSS VL: QAVLTQPSSVSRSLGQTVSITCSGSSDQVGFGDYVNWFQLIPGSAPKTLIFGASSRVRGVPDRFSGSRSGNTATLTINSLQAEDEADYYCGSANSRGGYVFGSGTRLTVLS | 1.51
Mutation 1-28 (antibody, V domains shown) VH: QVRLQESGPSQVKPAQTLSLTCAISGFSITTYYLDWVRHTPGKPPEWLAQMTKDGNAVHQPTVRSRLSITRDTSKSQVFLKLTGVTTEDTAVYYCVRGVIDWGPGLLVTVSS VL: QAVLTQPSSVSRSLGQTVSITCSGSSDNVGFGDYLNWFQLIPGSAPKTLIFGASSRLRGVPDRFSGSRSGNTATLTINSLQAEDEADYYCGSGNSRGGYVFGSGTRLTVLS | 2.25
Mutation 1-33 (antibody) heavy: QVRLQESGPSQVKPAQTLSLTCAISGFSVTTYYIDWVRHTPGKPPEWLAQMTKDGNAVHQPTLRSRLSITRDTSKSQVFLKLTGVTTEDTAVYYCVRGLIDFGPGLLVTVSSASTTPPKVYPLTSCCGDTSSSIVTLGCLVSSYMPEPVTVTWNSGALTSGVHTFPAILQSSGLYSLSSVVTVPASTSGAQTFICNVAHPASSTKVDKRVEPGCPDPCKHCRCPPPELPGGPSVFIFPPKPKDTLTISGTPEVTCVVVDVGQDDPEVQFSWFVDNVEVRTARTKPREEQFNSTFRVVSALPIQHQDWTGGKEFKCKVHNEGLPAPIVRTISRTKGQAREPQVYVLAPPQEELSKSTLSVTCLVTGFYPDYIAVEWQKNGQPESEDKYGTTTSQLDADGSYFLYSRLRVDKNSWQEGDTYACVVMHEALHNHYTQKSISKPPGK light: QAVLTQPSSVSRSLGQTVSITCSGSSDQVGFGDYINWFQLIPGSAPKTLIFGAYSRIRGVPDRFSGSRSGNTATLTINSLQAEDEADYYCGSANSRGGYVFGSGTRLTVLSQPKSAPSVTLFPPSKEELDTNKATVVCLISDFYPGSVNVVWKADGSTINQNVKTTQASKQSNSKYAASSYLTLTGSEWKSKSSYTCEVTHEGSTVTKTVKPSECS | 2.6
Mutation 1-38 (antibody, V domains shown) VH: QVRLQESGPSQVKPAQTLSLTCAISGFSITTYYVDWVRHTPGKPPEWLAQMTKDGNAVHQPTLRSRLSITRDTSKSQVFLKLTGVTTEDTAVYYCVRGLIDWGPGLLVTVSS VL: QAVLTQPSSVSRSLGQTVSITCSGSSDQVGFGDYINWFQLIPGSAPKTLIFGATSRVRGVPDRFSGSRSGNTATLTINSLQAEDEADYYCGSGNSRGGYVFGSGTRLTVLS | 1.82
Mutation 1-42 (antibody, V domains shown) VH: QVRLQESGPSQVKPAQTLSLTCAISGFSVTTYYIDWVRHTPGKPPEWLAQMTKDGNAVHNPTVRSRLSITRDTSKSQVFLKLTGVTTEDTAVYYCVRGIIDWGPGLLVTVSS VL: QAVLTQPSSVSRSLGQTVSITCSGSSDNVGFGDYINWFQLIPGSAPKTLIFGASSRIRGVPDRFSGSRSGNTATLTINSLQAEDEADYYCGSGNSRGGYVFGSGTRLTVLS | 2.22
Mutation 1-52 (antibody, V domains shown) VH: QVRLQESGPSQVKPAQTLSLTCAISGFSVTTYYLDWVRHTPGKPPEWLAQMTKDGNAVHQPTVRSRLSITRDTSKSQVFLKLTGVTTEDTAVYYCVRGVIDWGPGLLVTVSS VL: QAVLTQPSSVSRSLGQTVSITCSGSSDNVGFGDYLNWFQLIPGSAPKTLIFGAYSRLRGVPDRFSGSRSGNTATLTINSLQAEDEADYYCGSGNSRGGYVFGSGTRLTVLS | 2.71
WT 1-4 (antibody) heavy: QVRLQESGPSQVKPAQTLSLTCAISGPSVTTYYVDWVRHTPGKPPEWLAQMTKDANAVHQPTLRSRLSITRDTSKSQVFLKLTGVTTEDTAVYYCVKGVIDFGPGLLVTVSSASTTPPKVYPLTSCCGDTSSSIVTLGCLVSSYMPEPVTVTWNSGALTSGVHTFPAILQSSGLYSLSSVVTVPASTSGAQTFICNVAHPASSTKVDKRVEPGCPDPCKHCRCPPPELPGGPSVFIFPPKPKDTLTISGTPEVTCVVVDVGQDDPEVQFSWFVDNVEVRTARTKPREEQFNSTFRVVSALPIQHQDWTGGKEFKCKVHNEGLPAPIVRTISRTKGQAREPQVYVLAPPQEELSKSTLSVTCLVTGFYPDYIAVEWQKNGQPESEDKYGTTTSQLDADGSYFLYSRLRVDKNSWQEGDTYACVVMHEALHNHYTQKSISKPPGK light: QAVLTQPSSVSRSLGQTVSITCSGSSDQVGPGDYVNWFQLIPGSAPKTLIFAATSRIRGVPDRFSGSRSGNTATLTINSLQAEDEADYYCGSGNSRGGYVWGSGTRLTVLSQPKSAPSVTLFPPSKEELDTNKATVVCLISDFYPGSVNVVWKADGSTINQNVKTTQASKQSNSKYAASSYLTLTGSEWKSKSSYTCEVTHEGSTVTKTVKPSECS | 3.02
